Test results as given in patent US20250346678A1 (AP BIOSCIENCES, published 2025).

T1: human OX40 expressed on cells (human, UniProt P43489 29-277)
T1 construct: whole, on cells; also called OX40 expression HEK293 cells
T1 sequence (looked up): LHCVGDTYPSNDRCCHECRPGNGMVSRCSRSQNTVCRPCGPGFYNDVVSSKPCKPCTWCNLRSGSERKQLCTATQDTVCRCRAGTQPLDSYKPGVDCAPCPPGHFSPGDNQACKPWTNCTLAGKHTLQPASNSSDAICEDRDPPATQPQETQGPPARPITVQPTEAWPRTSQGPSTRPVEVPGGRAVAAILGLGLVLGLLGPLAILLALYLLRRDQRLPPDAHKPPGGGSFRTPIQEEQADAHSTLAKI


Experiments:
[1] = target: T1, human OX40 expressed on cells; assay: phage display selection and cell-based ELISA screening
Experimental: (§1) For the generation of therapeutic antibodies against PD-L1 or OX40, selections with the OmniMab phagemid library were carried out. The phagemid library is generated by AP Biosciences Inc. (APBio Inc.) from a collection of over hundred health donors B cells. Phages for the 1st round of pannings were prepared by Hyperphage (M13K07ΔρIII, Progen, Heidelberg, Germany). Solid phase panning and cell panning against PD-L1 or OX40 were applied for PD-L1 or OX40 specific binder selection and isolation from OmniMab library. […] Bound phages were detected by HRP conjugated anti-M13 antibody (Roche) and TMB substrate was used for signal development. The OD₄₅₀ readings were recorded. The positive binders were isolated and sent for sequencing to confirm the sequence and diversity of heavy chain and light chain.

human PD-L1 = target: T2, human PD-L1 (human, UniProt Q9NZQ7 19-238, limits assumed); assay: direct ELISA
T2 construct: also called recombinant PD-L1
T2 sequence (Q9NZQ7 19-238 limits assumed): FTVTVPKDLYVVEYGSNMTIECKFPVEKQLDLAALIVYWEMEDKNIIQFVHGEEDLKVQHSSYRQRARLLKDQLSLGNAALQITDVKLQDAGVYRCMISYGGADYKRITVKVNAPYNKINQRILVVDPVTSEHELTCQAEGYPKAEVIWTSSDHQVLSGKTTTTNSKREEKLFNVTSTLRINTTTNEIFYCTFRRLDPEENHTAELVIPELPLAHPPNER

[2] = target: T3, human PD-L1 expressed on cells (human, UniProt Q9NZQ7 19-290); assay: flow cytometry on stable PD-L1 expression 293 cells, IFN-γ stimulated A549 or WiDr
T3 construct: whole, on cells; also called PD-L1 expression HEK293 cells
T3 sequence (Q9NZQ7 19-290): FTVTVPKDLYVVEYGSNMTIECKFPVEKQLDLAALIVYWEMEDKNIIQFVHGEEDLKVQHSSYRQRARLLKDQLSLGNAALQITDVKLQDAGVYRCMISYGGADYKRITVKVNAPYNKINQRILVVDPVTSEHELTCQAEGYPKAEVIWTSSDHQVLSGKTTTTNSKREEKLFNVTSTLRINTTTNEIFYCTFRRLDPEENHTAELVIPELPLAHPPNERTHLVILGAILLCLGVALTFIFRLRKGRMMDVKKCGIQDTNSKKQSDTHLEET
Excerpt: The bound antibody fusion proteins were detected with Alexa-488 conjugated goat anti-human IgG (H+L) followed by FACS analysis. Isotype antibody was used as negative control for the test.

[3] = target: T4, human PD-L1 IgG1 Fc chimera (human, UniProt Q9NZQ7 19-238, limits assumed); assay: phage display selection and direct ELISA screening
T4 construct: Made by APBio; also called PD-L1-Fc; recombinant human PD-L1-Fc
T4 sequence (Q9NZQ7 19-238 limits assumed, change not shown): as the sequence (Q9NZQ7 19-238 limits assumed) above
Experimental: as §1

Row | Binder | binding result [1] | also measured
1 | OM-OX40-B17 (Fab, V domains shown, Fab from the phage library; variable regions identical to those of OX40 clone B17) VH: EVQLVESGGVVVQPGGSLRLSCAASGFTFDDYTMHWVRQAPGKGLEWVSLISWDGGSTYYADSVKGRFTISRDNSKNSLYLQMNSLRTEDTALYYCASIYDPPPGSRSALDAFDIWGQGTMVTVSS VL: SYVLTQPPSVSVTPGKTARIACGGNNLESKIVSWYQQKPGQAPVLVIFYDTDRPSGISERFSGSNSGNTATLTISRVEAGDEADYYCQVWDSNSDHVIFGGGTKLTVLG | binds | 
2 | OM-OX40-B19 (Fab, V domains shown, Fab from the phage library; variable regions identical to those of OX40 clone B19) VH: EVQLVESGGGLVKPGGSLRLSCAASGFTFSSYSMNWVRQAPGKGLEWVSSISSSSRYIYYADSVKGRFTISRDNAKNSLYLQMNSLRAEDTAVYYCARQNEDVAFGIWGQGTMVTVSS VL: SYVLTQPPSVSVTPGKTARIACGGNNLESKIVSWYQQKPGQAPVLVIFYDTDRPSGISERFSGSNSGNTATLTISRVEAGDEADYYCQVWDSNSDHVIFGGGTKLTVLG | binds | 
3 | OM-OX40-A4 (Fab, V domains shown, Fab from the phage library) VH: QVQLVESGGGLVQPGGSLRLSCAASGFTFSSYEMNWVRQAPGKGLEWVSYISSSGSTIYYADSVKGRFTISRDNAKNSLYLQMNSLRAEDTAVYYCARGGVGDAFDIWGQGTMVTVSS VL: QSALTQPPSASGSPGQSVTISCTGTSSDVGGYNYVSWYQQHPGKAPKLMIYEVSQRPSGVPDRFSGSKSGNTASLTVSGLQAEDEADYYCSSYAGSNNLGVFGGGTKLTVSS | binds | 
4 | anti-PD-L1 antibody clone 6 (antibody, human IgG4 S228P, lambda, V domains shown, also called PD-L1 clone 6; PD-L1-Clone 6) VH: QVQLVQSGAEVKKPGSSVKVSCKASGGTFRRYSISWVRQAPGQGLEWMGGIIPVFGAAKYAQKFQGRVTITADEFTSTAYMELSSLTSEDTAVYYCALSGDSDAFDIWGQGTMVTVSS VL: not shown |  | binding result (human PD-L1): binds; binding result [2]: binds
5 | OM-PD-L1-6 (Fab, V domains shown, Fab from the phage library) VH: QVQLVQSGAEVKKPGSSVKVSCKASGGTFRRYSISWVRQAPGQGLEWMGGIIPVFGAAKYAQKFQGRVTITADEFTSTAYMELSSLTSEDTAVYYCALSGDSDAFDIWGQGTMVTVSS VL: not shown |  | binding result [3]: binds
